Measured values from US20260183365A1, “COMBINATION THERAPY FOR C3 INHIBITION” (Apellis Pharmaceuticals, Inc., priority 2016, published 2026).

Columns and labels:
[1] = Phase 1 single and multiple ascending dose trial of inhaled (nebulized) CA28 in healthy volunteers; format: in vivo, human
Description: In the single ascending dose part of the trial, 16 subjects were enrolled in four cohorts of four subjects each.
Four subjects were enrolled in the first cohort of the multiple ascending dose part of the trial. These subjects were to receive 14 consecutive days of treatment with a 60 mg/day dose of the drug. […] The trial was paused and subsequently resumed, with subjects receiving 30 mg/day. […] The trial was then terminated.

complement component C3 [2] = biological target: T1, complement component C3 (human, UniProt P01024 23-1663); experiment: cell-based or functional assay
complement component C3 [3] = biological target: T1, complement component C3; experiment: cell-based or functional assay; remark: listed apart in the source

Molecule | IC50 (read off the curve) (classical pathway complement activation, C3b deposition ELISA with human plasma) (complement component C3 [3]) [nM] | also measured
CC[C@H](C)[C@H](NC(C)=O)C(=O)N[C@H]1CSSC[C@@H](C(=O)N[C@H](C(N)=O)[C@@H](C)O)NC(=O)[C@H](CCCNC(=N)N)NC(=O)[C@H](Cc2cnc[nH]2)NC(=O)[C@H](C)NC(=O)CNC(=O)[C@H](Cc2c[nH]c3ccccc23)NC(=O)[C@H](CC(=O)O)NC(=O)[C@H](CCC(N)=O)NC(=O)[C@H](Cc2cn(C)c3ccccc23)NC(=O)[C@H](C(C)C)NC1=O [CA28] | – | adverse event ([1]; inhaled 30 mg/day, after 10 days): Another subject developed signs and symptoms consistent with a potential bacterial infection; adverse event ([1]; inhaled 60 mg/day, after nine days): one subject developed signs and symptoms consistent with a potential bacterial infection
ICVWQDWGAHRCTK (not fully specified; N-terminal acetyl; (1Me)Trp at position 4; disulfide Cys2-Cys12; AEEAc between Thr13 and Lys; Lys side chain linked by a carbamate to one end of a bifunctional linear 40 kD PEG of the TS type; C-terminal amide) [CA28-2TS-BF] | – | IC50 (read off the curve) (alternative pathway complement activation, LPS-coated plate, C3b deposition ELISA) [B] (complement component C3 [2]): ~400 nM
ICVWQDWGAHRCTK (not fully specified; N-terminal acetyl; (1Me)Trp at position 4; disulfide Cys2-Cys12; AEEAc between Thr13 and Lys; 40 kD mPEG (NOF ME-400TS) on the Lys15 side chain; C-terminal amide) [CA28-AEEAc-Lys(mPEG40K-carbonyl)] | ~700 | –

Continued, in another order:

IC50 (read off the curve) (classical pathway complement activation, C3b deposition ELISA with human plasma) (complement component C3 [3]) [nM] | Molecule | also measured
~700 | ICVWQDWGAHRCTK (not fully specified; N-terminal acetyl; (1Me)Trp at position 4; disulfide Cys2-Cys12; AEEAc between Thr13 and Lys; 40 kD mPEG (NOF ME-400HS) on the Lys15 side chain; C-terminal amide) [CA28-AEEAc-Lys(mPEG40K-hexanoyl)] | –
~700 | ICVWQDWGAHRCTK (not fully specified; N-terminal acetyl; (1Me)Trp at position 4; disulfide Cys2-Cys12; AEEAc between Thr13 and Lys; 40 kD mPEG (NOF ME-400CS) on the Lys15 side chain; C-terminal amide) [CA28-AEEAc-Lys(mPEG40K-succinyl)] | –
~700 | ICVWQDWGAHRCTK (not fully specified; N-terminal acetyl; (1Me)Trp at position 4; disulfide Cys2-Cys12; AEEAc between Thr13 and Lys; linear monofunctional 40 kD PEG (NOF ME-400GS) on the Lys side chain; C-terminal amide) [CA28-AEEAc-Lys-(PEG40k)] | –
